From patent US5876949, “Antibodies specific for fragile X related proteins and method of using the same” (The Trustees of the University of Pennsylvania, dated 1999) come the findings set out here.

In this assay the target is GAL4(1-147)-FMR1, FMR1 fused to the DNA binding domain of the yeast transcription factor GAL4 (plasmid … (yeast; human, UniProt P04386). Description: yeast two-hybrid, HIS3 and LacZ reporters in HF7C.

B1: GAL4 activation domain alone (empty vector pGAD424) (other)
chain: ANFNQSGNIADSSLSFTFTNSSNGPNLITTQTNSQALSQPIASSNVHDNFMNNEITASKIDDGNNSKPLSPGWTDQTAYNAFGITTGMFNTTTMDDVYNYLFDDEDTPPNPKKE
In the case of B1, the binding result was “no binding”.
